Assay results: patent US20050261196A1 (UNIVERSITY OF CHICAGO, published 2005)
Values belong to the molecule of their own block, whether it stands above or below them. Where no end group is shown, it is not given here. [ ]: non-standard residue; d: D form.

Key:
[1] = test system: T1, D-PIK(reversed)
T1 sequence: KRRYKYKKR

[2] = test system: T2, D-PIK(int.)
T2 sequence: RKKYKYRRK

[3] = test system: T3, D-PIK
T3 sequence: RKKYKYRRK

[4] = biological target: myosin light chain kinase (215 kDa MLCK expressed by Caco-2 cells) (UniProt Q15746 1-1914, limits assumed); test: cell-based or functional assay
myosin light chain kinase (215 kDa MLCK expressed by Caco-2 cells), sequence (Q15746 whole entry): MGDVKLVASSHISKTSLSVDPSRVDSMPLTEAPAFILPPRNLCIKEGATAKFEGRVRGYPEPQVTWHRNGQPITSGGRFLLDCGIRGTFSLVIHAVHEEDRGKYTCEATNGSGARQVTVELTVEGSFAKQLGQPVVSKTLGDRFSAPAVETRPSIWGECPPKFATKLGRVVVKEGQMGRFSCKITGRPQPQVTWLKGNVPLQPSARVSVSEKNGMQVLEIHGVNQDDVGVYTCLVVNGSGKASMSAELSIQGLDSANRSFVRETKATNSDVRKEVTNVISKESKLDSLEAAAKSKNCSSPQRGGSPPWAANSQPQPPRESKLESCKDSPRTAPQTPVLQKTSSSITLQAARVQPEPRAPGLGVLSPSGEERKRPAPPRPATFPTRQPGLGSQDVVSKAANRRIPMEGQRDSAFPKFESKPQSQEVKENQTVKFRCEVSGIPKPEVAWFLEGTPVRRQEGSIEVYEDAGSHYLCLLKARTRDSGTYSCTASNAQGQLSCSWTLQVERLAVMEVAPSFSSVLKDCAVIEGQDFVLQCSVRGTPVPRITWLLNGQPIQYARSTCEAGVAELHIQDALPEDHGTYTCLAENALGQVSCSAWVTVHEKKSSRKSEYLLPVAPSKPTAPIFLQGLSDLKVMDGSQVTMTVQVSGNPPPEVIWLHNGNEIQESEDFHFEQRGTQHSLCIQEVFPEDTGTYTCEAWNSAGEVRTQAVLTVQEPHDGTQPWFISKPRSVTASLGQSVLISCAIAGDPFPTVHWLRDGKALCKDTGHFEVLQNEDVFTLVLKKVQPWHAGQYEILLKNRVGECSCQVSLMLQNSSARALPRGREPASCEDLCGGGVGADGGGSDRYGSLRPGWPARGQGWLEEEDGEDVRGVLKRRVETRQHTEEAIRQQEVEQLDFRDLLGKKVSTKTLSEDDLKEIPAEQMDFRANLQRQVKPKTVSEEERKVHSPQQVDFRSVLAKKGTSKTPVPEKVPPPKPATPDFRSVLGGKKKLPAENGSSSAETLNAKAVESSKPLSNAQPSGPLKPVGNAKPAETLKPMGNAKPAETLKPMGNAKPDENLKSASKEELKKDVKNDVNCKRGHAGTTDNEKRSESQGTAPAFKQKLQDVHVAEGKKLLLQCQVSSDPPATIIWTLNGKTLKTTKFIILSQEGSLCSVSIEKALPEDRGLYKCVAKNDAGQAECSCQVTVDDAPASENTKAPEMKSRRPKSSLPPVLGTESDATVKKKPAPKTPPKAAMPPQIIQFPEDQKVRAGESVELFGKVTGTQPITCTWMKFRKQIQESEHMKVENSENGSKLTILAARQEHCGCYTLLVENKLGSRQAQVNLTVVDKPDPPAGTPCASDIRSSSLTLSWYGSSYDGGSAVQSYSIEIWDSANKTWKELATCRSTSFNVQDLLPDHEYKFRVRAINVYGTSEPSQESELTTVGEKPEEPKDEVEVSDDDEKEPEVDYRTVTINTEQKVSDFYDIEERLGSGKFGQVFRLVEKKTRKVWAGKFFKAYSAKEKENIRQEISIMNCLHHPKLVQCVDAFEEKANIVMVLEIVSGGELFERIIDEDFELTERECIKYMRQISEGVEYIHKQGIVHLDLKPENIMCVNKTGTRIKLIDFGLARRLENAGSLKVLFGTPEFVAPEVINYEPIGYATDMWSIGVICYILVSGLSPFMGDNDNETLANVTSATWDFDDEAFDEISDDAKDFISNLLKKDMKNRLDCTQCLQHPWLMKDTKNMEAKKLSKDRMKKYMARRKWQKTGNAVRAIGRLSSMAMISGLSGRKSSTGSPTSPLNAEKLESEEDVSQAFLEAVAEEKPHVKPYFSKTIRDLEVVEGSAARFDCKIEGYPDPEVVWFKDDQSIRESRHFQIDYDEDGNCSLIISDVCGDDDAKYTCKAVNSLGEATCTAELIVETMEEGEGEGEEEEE

Δ TER (elevation in transepithelial resistance of Caco-2 monolayers, 500 µM peptide, one hour) [4]: 45%
B3: PIK (SEQ ID NO: 12) (peptide)
peptide: RKKYKYRRK-NH2
modifications: not fully specified; printed as Arg-Lys-Lys-Tyr-Lys-Tyr-Arg-Arg-Lys

Δ TER (elevation in transepithelial resistance of Caco-2 monolayers, 500 µM peptide, one hour) [4]: 50%
B4: D-PIK(reversed) (peptide)
peptide: [dK][dR][dR][dY][dK][dY][dK][dK][dR]-NH2

The next lines start with the molecule.

Molecule: Calcium/calmodulin dependent protein kinase II (CaMPKII)
CaMPKII activity (phosphorylation of plate-bound pseudo-substrate peptide, anti-phosphoserine ELISA) [1]: Neither D-PIK nor D-PIK(reversed) nor D-PIK(int) demonstrated striking inhibitory effects toward PKA or CaMPKII at concentrations up to 5 mM
CaMPKII activity (phosphorylation of plate-bound pseudo-substrate peptide, anti-phosphoserine ELISA) [2]: Neither D-PIK nor D-PIK(reversed) nor D-PIK(int) demonstrated striking inhibitory effects toward PKA or CaMPKII at concentrations up to 5 mM
CaMPKII activity (phosphorylation of plate-bound pseudo-substrate peptide, anti-phosphoserine ELISA) [3]: Neither D-PIK nor D-PIK(reversed) nor D-PIK(int) demonstrated striking inhibitory effects toward PKA or CaMPKII at concentrations up to 5 mM

B1: D-PIK (peptide)
peptide: [dR][dK][dK][dY][dK][dY][dR][dR][dK]-NH2
Δ TER (elevation in transepithelial resistance of Caco-2 monolayers, 500 µM peptide, one hour) [4]: 41%

B2: D-PIK(int.) (peptide)
peptide: RKK[dY][dK][dY]RRK-NH2
Δ TER (elevation in transepithelial resistance of Caco-2 monolayers, 500 µM peptide, one hour) [4]: 47%
